Test results taken from US9035028B2, “Temperature sensitive conjugate compositions” (Emory University, priority 2010, dated 2015).
Where a SMILES comes first, the peptide text is derived from it. Bridges are numbered along the chain shown (N, C = ends). [ ]: non-standard residue; d: D form. hArg = N=C(N)NCCCC[C@H](N)C(=O)O; Mpa = O=C(O)CCS

Tests used:
[1] = target: T1, αv/β3 integrins on vascular cells (Homo sapiens, UniProt P05106+P06756); conditions: cited from earlier work
T1 construct: host or cells: vascular cells (not specified)
T1 sequence (P06756 31-889 limits assumed): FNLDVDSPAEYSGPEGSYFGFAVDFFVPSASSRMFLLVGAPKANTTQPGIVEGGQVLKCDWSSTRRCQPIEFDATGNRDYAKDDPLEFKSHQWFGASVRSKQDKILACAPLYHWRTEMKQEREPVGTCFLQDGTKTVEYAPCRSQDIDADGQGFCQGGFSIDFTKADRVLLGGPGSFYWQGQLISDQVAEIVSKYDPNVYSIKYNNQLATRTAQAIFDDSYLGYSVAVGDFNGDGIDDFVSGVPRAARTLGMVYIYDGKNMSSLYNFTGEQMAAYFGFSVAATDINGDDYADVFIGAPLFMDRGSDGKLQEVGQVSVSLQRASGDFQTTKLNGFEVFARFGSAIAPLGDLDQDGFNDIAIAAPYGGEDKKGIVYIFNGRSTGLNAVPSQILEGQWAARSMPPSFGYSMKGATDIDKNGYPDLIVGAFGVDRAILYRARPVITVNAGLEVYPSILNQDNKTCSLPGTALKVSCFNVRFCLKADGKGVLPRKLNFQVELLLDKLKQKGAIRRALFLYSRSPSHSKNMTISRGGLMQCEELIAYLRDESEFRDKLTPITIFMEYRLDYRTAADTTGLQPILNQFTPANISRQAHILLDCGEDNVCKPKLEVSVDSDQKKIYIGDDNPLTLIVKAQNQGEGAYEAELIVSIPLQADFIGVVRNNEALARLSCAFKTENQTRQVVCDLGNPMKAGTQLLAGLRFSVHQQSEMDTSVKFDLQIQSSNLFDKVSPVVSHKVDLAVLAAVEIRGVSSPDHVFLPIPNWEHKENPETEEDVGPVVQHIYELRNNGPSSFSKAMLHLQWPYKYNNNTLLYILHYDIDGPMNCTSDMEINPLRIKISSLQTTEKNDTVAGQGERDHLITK
T1 sequence (P06756 891-1048 partner limits assumed): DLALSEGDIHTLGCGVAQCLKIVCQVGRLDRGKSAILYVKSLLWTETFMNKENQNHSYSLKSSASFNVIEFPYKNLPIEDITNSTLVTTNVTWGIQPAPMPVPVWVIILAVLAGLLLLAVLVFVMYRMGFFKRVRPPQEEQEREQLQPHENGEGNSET
T1 sequence (P05106 27-788): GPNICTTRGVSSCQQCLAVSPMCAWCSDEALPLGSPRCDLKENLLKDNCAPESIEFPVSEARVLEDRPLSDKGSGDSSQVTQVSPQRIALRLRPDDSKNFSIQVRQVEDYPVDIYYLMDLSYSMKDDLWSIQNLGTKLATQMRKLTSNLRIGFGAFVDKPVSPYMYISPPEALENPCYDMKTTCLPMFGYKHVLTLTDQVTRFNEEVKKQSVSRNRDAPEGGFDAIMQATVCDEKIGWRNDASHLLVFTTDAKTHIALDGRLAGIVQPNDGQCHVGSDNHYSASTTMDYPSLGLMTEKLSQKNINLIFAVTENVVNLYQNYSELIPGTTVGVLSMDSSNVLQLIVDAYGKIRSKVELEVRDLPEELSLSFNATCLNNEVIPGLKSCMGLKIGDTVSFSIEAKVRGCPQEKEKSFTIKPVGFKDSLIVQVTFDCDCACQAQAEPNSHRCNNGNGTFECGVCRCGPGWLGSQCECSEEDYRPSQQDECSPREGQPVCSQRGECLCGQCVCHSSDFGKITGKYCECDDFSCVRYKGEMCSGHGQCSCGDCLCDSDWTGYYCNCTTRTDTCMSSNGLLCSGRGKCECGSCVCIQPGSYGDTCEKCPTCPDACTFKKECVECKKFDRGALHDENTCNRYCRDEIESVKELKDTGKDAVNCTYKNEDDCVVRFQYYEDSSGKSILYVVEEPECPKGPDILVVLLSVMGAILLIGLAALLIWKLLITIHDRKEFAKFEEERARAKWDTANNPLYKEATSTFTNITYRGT

[2] = tested on: activated human platelets; experiment: Microscopic analysis of platelet aggregates; assay type: cell-based; conditions: both temperatures (22° C. and 37° C.)
Description: For the microscopic analysis of platelet aggregates at different temperatures, non-diluted human PRP was placed onto a glass slide and ADP was added to a final concentration of 20 μM, in the presence and absence of EMP-scFv (50 μg/mL). Abciximab was used as a positive control at a concentration of 10 μg/mL. The experiments were conducted at 22° C. and 37° C. Phase contrast microscopy images were taken using an Olympus CKX41 microscope.

[3] = target: T2, GPIIb/IIIa (integrin alphaIIb beta3) on human platelets (human, UniProt P08514 32-1039; P05106 27-788); experiment: flow cytometry, resting and ADP-activated human platelets, 22° C., 32° C. and 37° C.
T2 construct: whole, on cells; also called GPIIb/IIIa receptor; glycoprotein IIb/IIIa

[4] = Circular dichroism (CD) spectra and thermal transition profile; assay type: physicochemical
Description: The mathematical fitting of the CD data allowed the determination of the transition temperature (Tt) resulting from conformational change of EMP as the temperature is increased. The mathematical fitting of the CD data to the van't Hoff equation allowed the determination of the transition temperature (Tt) resulting from conformational change of EMP and EMP-scFv as the temperature is increased.
Circular dichroism (CD) spectra were recorded on a Jasco J-810 spectropolarimeter equipped with a PFD-425S Peltier temperature control unit in 0.1 cm sealed quartz cells at concentrations of 7.5 μM (EMP), 8.4 μM (scFv) and 4.1 μM (EMP-scFv) in 50 mM sodium phosphate buffer, pH 7.4. Temperature/wavelength CD-scans were performed within the temperature range from 5° C. to 35° C. with equilibration for 10 min at each temperature. Spectra were obtained from 260 to 190 nm at a resolution of 0.5 nm and at a scanning speed of 50 nm/min. The CD curves represented the average of five measurements and were smoothed using the means-movement method on the interval analysis of the spectral manager program. CD data are reported as mean residue ellipticity ([θ], deg cm^2 dmol^−1). Thermal transition curves were plotted by the mean residue ellipticity as a function of temperature for the disappearance of the random coil and the appearance of the β-turn structure.

[5] = target: T3, GPIIb/IIIa on human platelets (Homo sapiens, UniProt P05106+P08514); experiment: Flow cytometry: binding to human platelets; conditions: regardless of the temperature
T3 construct: endogenous in cells
Description: Human blood was collected by venipuncture with a 21-gauge butterfly needle from healthy volunteers and anticoagulated with citric acid. Platelet-rich plasma (PRP) was obtained by centrifugation (GS-6R centrifuge, Beckman Coulter) at 100×g at room temperature for 10 min.
Human PRP was diluted 1/50 in modified Tyrode's buffer containing 2 mM MgCl2 and 2 mM CaCl2. Platelets were either activated by addition of 20 μM ADP, or non activated, followed by the incubation with 15 and 50 μg/mL EMP-scFv fusion protein or EMP at 22° C., 32° C. and at 37° C. for 15 min. Mouse platelets were either pre-activated for 10 min by addition of 0.1 U/mL thrombin (Enzyme Research Laboratories), or non activated, before the incubation with 15 and 50 μg/mL of EMP-scFv fusion protein at 22° C., 32° C. or 37° C. for 15 min. In both, human and mouse samples, EMP-scFv was detected via 15 min in-dark incubation with secondary antibody (Penta-His Alexa Fluor 488, Qiagen) directed against the His(6)-tag of the single-chain antibody.
In re-warming experiments, activated and non-activated diluted human PRP was incubated with 15 and 50 μg/mL of EMP-scFv for 15 minutes at 22° C., followed by a 15-min in dark incubation with secondary Penta-His Alexa Fluor 488 antibody. Half of the reaction was then fixed with 1× Cell FIX, while the other half was incubated at 37° C. for either 15 or 30 minutes, before being fixed and measured in FACS.

[6] = in contrast to conformation unspecific GPIIb/IIIa inhibitors; cited from earlier work
GPIIb/IIIa = GPIIb/IIIa (Homo sapiens, UniProt P05106+P08514); experiment: Specificity of scFv (studies in applicant's laboratory); assay type: binding

Question: For `N=C(N)NCCCC[C@@H]1NC(=O)CCSSC[C@@H](C(N)=O)NC(=O)[C@@H]2CCCN2C(=O)[C@H](Cc2c[nH]c3ccccc23)NC(=O)[C@H](CC(=O)O)NC(=O)CNC1=O` [eptifibatide] ([Mpa][hArg]GDWPC-NH2; disulfide 1-7), which “ligand binding to αv/β3 integrins on vascular cells” value [1] is on record?
Answer: antagonize ligand binding

Question: For abciximab [reference compound], which “aggregation of activated human platelets (microscopy)” value [2] is on record?
Answer: abolishes aggregation

Question: What about the “ligand binding to αv/β3 integrins on vascular cells” value [1] of the same molecule?
Answer: antagonize ligand binding

B1: EMP alone (elastin-mimetic polypeptide without scFv) (other)
chain: MAVPAVGIPAVGIPAVGIPAVGIPAVGIPAVGIPAVGIPAVGIPAVGIPAVGIPAVGIPAVGIPAVGIPAVGIPAVGIPAVGIPAVGIPAVGIPAVGIPAVGIPAVGIPAVGIPAVGIPAVGIPAVGIPAVGIPAVGIPAVGIPAVGIPAVGIPAVGIPAVGIPAVGIPAVGIPAVGIPAVGIPAVGIPAVGIPAVGIPAVGIPAVGIPAVGIPAVGIPAVGIPAVGIPAVGIPAVGIPAVGIPAVGIPAVGIPAVGIPAVGIPAVGIPAVGIPAVGIPAVGIPAVGIPAVGIPAVGIPAVGIPAVGIPAVGIPAVGIPAVGIPAVGIPAVGIPAVGIPAVGIPAVGIPAVGIPAVGIPAVGIPAVGIPAVGIPAVGIPAVGIPAVGIPAVGIPAVGIPAVGIP
Question: Does B1 bind [3]?
Answer: no binding (tested: 15 and 50 µg/mL)

B2: EMP: elastin mimetic polypeptide, sixteen repeats of monomer (IPAVG)5, SEQ ID NO: 11, approximately 35 kDa (protein)
chain: B1 chain
Question: With B2 as the molecule, how does the “transition temperature (Tt)” value ([4]; CD data at 198 and 220 nm, van't Hoff fit) read?
Answer: approximately 26 °C

Question: And the “binding to resting or activated platelets” value [5]?
Answer: did not bind

B3: scFv: activation-specific GPIIb/IIIa-blocking single-chain antibody, SEQ ID NO: 13 (protein)
scFv: MAEVQLVESGGGLVQPGGSLRLSCAASGFMFSRYAMSWVRQAPGKGPEWVSGISGSGGSTYYADSVKGRFTVSRDNSKNTLYLQMNSLRAEDTAVYYCARIFTHRSRGDVPDQTSFDYWGQGTLVTVSSGSASAPKLEEGEFSEARVSSELTQDPAVSVALGQTVRITCQGDSLRNFYASWYQQKPGQAPTLVIYGLSKRPSGIPDRFSASSSGNTASLTITGAQAEDEADYYCLLYYGGGQQGVFGGGTKLTVLRQPKAAPSVTLFPPSSAAAGSEQKLISEEDLNS
Question: For B3, which bleeding time [6] is on record?
Answer: does not prolong bleeding time

Question: What about the “conformational changes in CD” value ([4]; temperature increased up to 35° C.) of the same molecule?
Answer: No significant conformational changes

Question: And the specificity of binding (GPIIb/IIIa)?
Answer: GPIIb/IIIa-specific and binds to activated platelets exclusively
